From patent US20190055314A1 (ADAGENE, published 2019)

biological target: T1, CD137-hisFc fusion protein (Sino Biological Cat 10041-H03H) (human, UniProt Q07011 24-186); experiment: BLI Octet, Fab
T1 construct: Bought; also called recombinant human CD137 (fused with human Fc and His tag); not shown: His tag and human Fc

Kd	koff	kon	Binder
24.1 nM	0.00289 s⁻¹	120000 M⁻¹ s⁻¹	Fab 5360 (Fab, V domains shown, Fab from E. coli; also called VH28/VL28) VH: EVQLVESGGGLVQPGGSLRLSCAASGYSITSGHYWNWIRQAPGKGLEWVSGISGDGSSTYYADSVKGRFTISRDNSKNTLYLQLNSLRAEDTAVYYCARGGSDAVLGDWFAYWGQGTLVTVSS VL: DIQLTQSPSSLSASVGDRVTITCRASQSISSYLAWYQQKPGKAPKLLIYDASNLETGVPSRFSGSGSGTDFTLTISSLQPEDFATYYCQQGYSTWTFGQGTKVEIKR
29.3 nM	0.00188 s⁻¹	64200 M⁻¹ s⁻¹	Fab 5341 (Fab, V domains shown, Fab from E. coli; also called VH20/VL20) VH: EVQLVESGGGLVQPGGSLRLSCAASGYSITSGHHWAWIRQAPGKGLEWVSAISGDGSTTYYADSVKGRFTISRDNSKNTLYLQLNSLRAEDTAVYYCAREGSTAVTGDWFAYWGQGTLVTVSS VL: DIQLTQSPSSLSASVGDRVTITCSASSRVGYVHWYQQKPGKAPKLLIYDASSLESGVPSRFSGSGSGTDFTLTISSLQPEDFATYYCQQGYYTWTFGQGTKVEIKR
13 nM	0.000769 s⁻¹	59300 M⁻¹ s⁻¹	Fab 4134 (Fab, V domains shown, Fab from E. coli; also called VH6/VL6) VH: EVQLVESGGGLVQPGGSLRLSCAASGYSISSGHHWGWIRQAPGKGLEWVSGISGYGDTTYYADSVKGRFTISRDNSKNTLYLQLNSLRAEDTAVYYCARDPYSSGSGYFDYWGQGTLVTVSS VL: DIQLTQSPSSLSASVGDRVTITCRASQGISSALGWYQQKPGKAPKLLIYAASSLQSGVPSRFSGSGSGTDFTLTISSLQPEDFATYYCQQSYYTWTFGQGTKVEIKR
< 0.001 nM	< 1e-07 s⁻¹	25700 M⁻¹ s⁻¹	Fab 4140 (Fab, V domains shown, Fab from E. coli; also called VH9/VL9) VH: EVQLVESGGGLVQPGGSLRLSCAASGYSISSGYHWNWIRQAPGKGLEWVSSISGSGGSTYYADSVKGRFTISRDNSKNTLYLQLNSLRAEDTAVYYCARDPNYYSSGSYFDYWGQGTLVTVSS VL: DIQLTQSPSSLSASVGDRVTITCRASQGIGSFLGWYQQKPGKAPKLLIYDASNRATGIPSRFSGSGSGTDFTLTISSLQPEDFATYYCQQSYSLWTFGQGTKVEIKR
3.97 nM	0.00479 s⁻¹	1.21e+06 M⁻¹ s⁻¹	Fab 5371 (Fab, V domains shown, Fab from E. coli; also called VH33/VL33) VH: EVQLVESGGGLVQPGGSLRLSCAASGFSLSTSGVGVAWIRQAPGKGLEWVSYISGDGGSTYYADSVKGRFTISRDNSKNTLYLQLNSLRAEDTAVYYCAREGSDVVAGDWFAYWGQGTLVTVSS VL: DIQLTQSPSSLSASVGDRVTITCRASQDISSVLAWYQQKPGKAPKLLIYDASSLESGVPSRFSGSGSGTDFTLTISSLQPEDFATYYCQQGYQIWTFGQGTKVEIKR
10.2 nM	0.0133 s⁻¹	1.31e+06 M⁻¹ s⁻¹	Fab 5348 (Fab, V domains shown, Fab from E. coli; also called VH23/VL23) VH: EVQLVESGGGLVQPGGSLRLSCAASGFSLSTGGVAVGWIRQAPGKGLEWVSGISGDGGTTYYADSVKGRFTISRDNSKNTLYLQLNSLRAEDTAVYYCTREDYGPHAYWGQGTLVTVSS VL: DIQLTQSPSSLSASVGDRVTITCRASQSITTYLNWYQQKPGKAPKLLIYDASNLETGVPSRFSGSGSGTDFTLTISSLQPEDFATYYCQQSYSYSTFGQGTKVEIKR
24.3 nM	0.0132 s⁻¹	542000 M⁻¹ s⁻¹	Fab 7097 (Fab, V domains shown, Fab from E. coli; also called VH49/VL49) VH: EVQLVESGGGLVQPGGSLRLSCAASGYSISSGHHWDWIRQAPGKGLEWVSYISGAGDTTYYADSVKGRFTISRDNSKNTLYLQLNSLRAEDTAVYYCAREGSDAVLGDWFAYWGQGTLVTVSS VL: DIQLTQSPSSLSASVGDRVTITCRASQGISSYLAWYQQKPGKAPKLLIYDASNLETGVPSRFSGSGSGTDFTLTISSLQPEDFATYYCQQYYSTPLTFGQGTKVEIKR
< 0.001 nM	< 1e-07 s⁻¹	85600 M⁻¹ s⁻¹	Fab 4137 (Fab, V domains shown, Fab from E. coli; also called VH7/VL7) VH: EVQLVESGGGLVQPGGSLRLSCAASGYSITSGYYWGWIRQAPGKGLEWVSGISGSGSSTYYADSVKGRFTISRDNSKNTLYLQLNSLRAEDTAVYYCARGTYSFDVWGQGTLVTVSS VL: DIQLTQSPSSLSASVGDRVTITCRASQGISSDLAWYQQKPGKAPKLLIYAASTLQSGVPSRFSGSGSGTDFTLTISSLQPEDFATYYCQQYYSYITFGQGTKVEIKR
17 nM	0.00427 s⁻¹	251000 M⁻¹ s⁻¹	Fab 5409 (Fab, V domains shown, Fab from E. coli; also called VH37/VL37) VH: EVQLVESGGGLVQPGGSLRLSCAASGYSISSGHHWAWIRQAPGKGLEWVSVISGSGSSTYYADSVKGRFTISRDNSKNTLYLQLNSLRAEDTAVYYCAREGSDTVLGDWFAYWGQGTLVTVSS VL: DIQLTQSPSSLSASVGDRVTITCRASQGISSYLAWYQQKPGKAPKLLIYDASNLETGVPSRFSGSGSGTDFTLTISSLQPEDFATYYCQQGYSTWTFGQGTKVEIKR
1.65 nM	8.17e-05 s⁻¹	49600 M⁻¹ s⁻¹	Fab 4139 (Fab, V domains shown, Fab from E. coli; also called VH8/VL8) VH: EVQLVESGGGLVQPGGSLRLSCAASGYTFTGYAIHWVRQAPGKGLEWVSAISGDGGSTYYADSVKGRFTISRDNSKNTLYLQLNSLRAEDTAVYYCARGYRGYFDYWGQGTLVTVSS VL: DIQLTQSPSSLSASVGDRVTITCRASESVTSTYLAWYQQKPGKAPKLLIYDASNLETGVPSRFSGSGSGTDFTLTISSLQPEDFATYYCQQYSDWPPTFGQGTKVEIKR
34.5 nM	0.00911 s⁻¹	264000 M⁻¹ s⁻¹	Fab 7120 (Fab, V domains shown, Fab from E. coli; also called VH53/VL53) VH: EVQLVESGGGLVQPGGSLRLSCAASGFSLSTSGVGVGWIRQAPGKGLEWVSYISGDGDTTYYADSVKGRFTISRDNSKNTLYLQLNSLRAEDTAVYYCAREGSTTVLGDWFAYWGQGTLVTVSS VL: DIQLTQSPSSLSASVGDRVTITCRASQGISSYLAWYQQKPGKAPKLLIYDASNLETGVPSRFSGSGSGTDFTLTISSLQPEDFATYYCQQYYSTPLTFGQGTKVEIKR
31.5 nM	0.00219 s⁻¹	69300 M⁻¹ s⁻¹	Fab 4079 (Fab, V domains shown, Fab from E. coli; also called VH5/VL5) VH: EVQLVESGGGLVQPGGSLRLSCAASGFTFTGYWIHWVRQAPGKGLEWVGRIRSKTDGYTTEYAAPVKGRFTISRDNSKNTLYLQLNSLRAEDTAVYYCARLGGHWYFDVWGQGTLVTVSS VL: DIQLTQSPSSLSASVGDRVTITCRASQSIGRYLNWYQQKPGKAPKLLIYDASNLETGVPSRFSGSGSGTDFTLTISSLQPEDFATYYCEQPLELPRTFGQGTKVEIKR
37.9 nM	0.00403 s⁻¹	106000 M⁻¹ s⁻¹	Fab 7159 (Fab, V domains shown, Fab from E. coli; also called VH58/VL58) VH: EVQLVESGGGLVQPGGSLRLSCAASGFSLSTSGVGVGWIRQAPGKGLEWIGDIYHSGSTYYNPSLKSRVTISRDNSKNTLYLQLNSLRAEDTAVYYCAREGSTAVLGDWFAYWGQGTLVTVSS VL: DIQLTQSPSSLSASVGDRVTITCRASQSISSYLNWYQQKPGKAPKLLIYAASTLQSGVPSRFSGSGSGTDFTLTISSLQPEDFATYYCQQYYSTPLTFGQGTKVEIKR
31.7 nM	0.00322 s⁻¹	102000 M⁻¹ s⁻¹	Fab 7135 (Fab, V domains shown, Fab from E. coli; also called VH57/VL57) VH: EVQLVESGGGLVQPGGSLRLSCAASGFSLSTGGVGVGWIRQAPGKGLEWVSSISGSGGSTYYADSVKGRFTISRDNSKNTLYLQLNSLRAEDTAVYYCAREGSDTVLGDWFAYWGQGTLVTVSS VL: DIQLTQSPSSLSASVGDRVTITCRASQGVSSYLAWYQQKPGKAPKLLIYDASNLETGVPSRFSGSGSGTDFTLTISSLQPEDFATYYCQQYYTTPLTFGQGTKVEIKR
30.4 nM	0.0081 s⁻¹	266000 M⁻¹ s⁻¹	Fab 7131 (Fab, V domains shown, Fab from E. coli; also called VH55/VL55) VH: EVQLVESGGGLVQPGGSLRLSCAASGFSLSTGGVGVGWIRQAPGKGLEWVSYISGAGDSTYYADSVKGRFTISRDNSKNTLYLQLNSLRAEDTAVYYCAREGSDTVLGDWFAYWGQGTLVTVSS VL: DIQLTQSPSSLSASVGDRVTITCRASQGVSSYLAWYQQKPGKAPKLLIYDASNLETGVPSRFSGSGSGTDFTLTISSLQPEDFATYYCQQYYTTPLTFGQGTKVEIKR
12.4 nM	0.00429 s⁻¹	345000 M⁻¹ s⁻¹	Fab 7166 (Fab, V domains shown, Fab from E. coli; also called VH60/VL60) VH: EVQLVESGGGLVQPGGSLRLSCAASGFSLSTSGVAVAWIRQAPGKGLEWIGDIYHSGNTYYNPSLKSRVTISRDNSKNTLYLQLNSLRAEDTAVYYCARGGSDTVVGDWFAYWGQGTLVTVSS VL: DIQLTQSPSSLSASVGDRVTITCRASQSISSYLNWYQQKPGKAPKLLIYAASTLQSGVPSRFSGSGSGTDFTLTISSLQPEDFATYYCQQYYSTPLTFGQGTKVEIKR
12.6 nM	0.00378 s⁻¹	299000 M⁻¹ s⁻¹	Fab 7163 (Fab, V domains shown, Fab from E. coli; also called VH59/VL59) VH: EVQLVESGGGLVQPGGSLRLSCAASGFSLSTSGVGVTWIRQAPGKSLEWIGDIYHSGSTYYSPSLKSRVTISRDNSKNTLYLQLNSLRAEDTAVYYCAREGSDAVAGDWFDYWGQGTLVTVSS VL: DIQLTQSPSSLSASVGDRVTITCRASQSISSYLNWYQQKPGKAPKLLIYAASTLQSGVPSRFSGSGSGTDFTLTISSLQPEDFATYYCQQYYSTPLTFGQGTKVEIKR
40.3 nM	0.00405 s⁻¹	101000 M⁻¹ s⁻¹	Fab 7133 (Fab, V domains shown, Fab from E. coli; also called VH56/VL56) VH: EVQLVESGGGLVQPGGSLRLSCAASGFSLSTSGVGVAWIRQAPGKGLEWVSSISGYGGTTYYADSVKGRFTISRDNSKNRLYLQLNSLRAEDTAVYYCAREGSDTVLGDWFAYWGQGTLVTVSS VL: DIQLTQSPSSLSASVGDRVTITCRASQGVSSYLAWYQQKPGKAPKLLIYDASNLETGVPSRFSGSGSGTDFTLTISSLQPEDFATYYCQQYYTTPLTFGQGTKVEIKR
39.7 nM	0.0123 s⁻¹	309000 M⁻¹ s⁻¹	Fab 7128 (Fab, V domains shown, Fab from E. coli; also called VH54/VL54) VH: EVQLVESGGGLVQPGGSLRLSCAASGFSLSTGGVGVAWIRQAPGKGLEWVSYISGDGGTTYYADSVKGRFTISRDNSKNTLYLQLNSLRAEDTAVYYCAREGSDTVLGDWFAYWGQGTLVTVSS VL: DIQLTQSPSSLSASVGDRVTITCRASQGISSYLAWYQQKPGKAPKLLIYDASNLETGVPSRFSGSGSGTDFTLTISSLQPEDFATYYCQQSYSTPLTFGQGTKVEIKR

biological target: T1, CD137-hisFc fusion protein (Sino …); experiment: BLI Octet, Fab; remark: another data set of the same source

Kd	koff	kon	Binder
24 nM	0.0029 s⁻¹	120000 M⁻¹ s⁻¹	Fab 5360 (Fab, V domains shown, Fab from E. coli; also called VH28/VL28) VH: EVQLVESGGGLVQPGGSLRLSCAASGYSITSGHYWNWIRQAPGKGLEWVSGISGDGSSTYYADSVKGRFTISRDNSKNTLYLQLNSLRAEDTAVYYCARGGSDAVLGDWFAYWGQGTLVTVSS VL: DIQLTQSPSSLSASVGDRVTITCRASQSISSYLAWYQQKPGKAPKLLIYDASNLETGVPSRFSGSGSGTDFTLTISSLQPEDFATYYCQQGYSTWTFGQGTKVEIKR
17 nM	0.0043 s⁻¹	250000 M⁻¹ s⁻¹	Fab 5409 (Fab, V domains shown, Fab from E. coli; also called VH37/VL37) VH: EVQLVESGGGLVQPGGSLRLSCAASGYSISSGHHWAWIRQAPGKGLEWVSVISGSGSSTYYADSVKGRFTISRDNSKNTLYLQLNSLRAEDTAVYYCAREGSDTVLGDWFAYWGQGTLVTVSS VL: DIQLTQSPSSLSASVGDRVTITCRASQGISSYLAWYQQKPGKAPKLLIYDASNLETGVPSRFSGSGSGTDFTLTISSLQPEDFATYYCQQGYSTWTFGQGTKVEIKR
